These results are taken from article PMC4017264 (Molecular Cell, 2014).

Assay [1] deals with FITC-Ahx-labeled OTULIN PIM peptide (aa 49–67) (UniProt Q96BN8). In words: fluorescence polarisation; serially diluted PUB domains and HOIP variants mixed with an equal volume of 100 nM FITC-Ahx-labeled peptide; one-site binding model; triplicate. On the technique in general: Polarisation of emitted light reports the rotation of a fluorescent probe.
Assay [2] deals with HOIP (Met1-linked polyUb). Description: HOIP autoubiquitination, purification of endogenous Met1-polyUb conjugates (M1-SUB pulldown). It is filed as cell-based. Conditions: U2OS/NOD2 cells, ectopic OTULIN variants, basal, identical with L18-MDP or TNF, immunoblot. An excerpt: Antibodies and affinity resin
The following antibodies and reagents were used according to the manufacturers’ instructions: anti-HA-agarose resin (A2095), anti-V5-agarose resin (A7345) and rabbit polyclonal anti-HOIP/RNF31 (SAB2102031, Sigma-Aldrich), rat monoclonal anti-HA (#11867423991, Roche Diagnostics, Burgess Hill, UK), mouse monoclonal anti-ubiquitin (IMG-5021, Imgenex, San Diego, CA), rabbit polyclonal anti-SHARPIN (#14626-1-AP, ProteinTech, Chicago, IL), rabbit polyclonal anti-RBCK1/HOIL-1 (NBP1-88301, Novus Biologicals, Littleton, CO), mouse monoclonal anti-V5 (MCA1360, AbD Serotec, Kidlington, UK), mouse monoclonal anti-$-actin (MAB1501, Chemicon, Millipore, Billerica, MA), rabbit polyclonal anti-HOIL-1, rabbit polyclonal anti-HOIP/RNF31
(Sigma), mouse monoclonal anti-p97 (Thermo Scientific). The
Fam105B/OTULIN antibody was previously described (Keusekotten et al., 2013). […]
HEK293ET, RPE1 and U2OS cells were collected, washed with PBS and lysed on ice for 30 minutes in SEC cell extraction buffer (150 mM NaCl, 50 mM Tris-HCl pH 7.4, 1 mM MgCl2, 1 mM DTT, 0.3% NP40, protease and (Roche)). […] In total 3.1 mg protein extract was analyzed on a Superdex 200 10/300 GL column (GE Life Sciences). […]
Background: In western blotting, separated proteins are transferred to a membrane and probed.

Assay [3] concerns the target T1, HOIP PUB domain (aa 5–180) (UniProt Q96EP0 5-180).
T1 construct: HOIP, residues 5-180, PUB domain; also called HOIP 5–180; slightly truncated HOIP PUB domain construct
T1 sequence (looked up): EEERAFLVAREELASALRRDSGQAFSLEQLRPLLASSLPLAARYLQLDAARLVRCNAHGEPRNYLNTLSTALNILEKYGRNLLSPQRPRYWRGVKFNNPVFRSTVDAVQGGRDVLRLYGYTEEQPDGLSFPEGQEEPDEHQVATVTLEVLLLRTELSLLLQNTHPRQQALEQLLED
Description: crystal structure; HOIP 5–180 with OTULIN 49–67, 2.0 Å, space group P 6(1), two molecules in the asymmetric unit. As to conditions: both partners purified.

Take “HOIP extended PUB domain (aa 1–184) (from UniProt Q96EP0 1-184) (domain or fragment)”: the Kd (in general, a measure of binding affinity in units of concentration) in assay [1] was determined as 180 nM. As to “inactive OTULIN with a mutation in the PIM (Y56A): catalytically inactive OTULIN (C129A) with PIM mutation Y56A”, the “HOIP autoubiquitination with Met1-linked polyUb (in words)” value in assay [2] is on record as “did not lead to HOIP autoubiquitination”.

B1: unlabeled OTULIN PIM peptide (aa 49–67) (peptide, UniProt Q96BN8 49-67, looked up)
peptide: AEHEEDMYRAADEIEKEKE
notes: OTULIN, residues 49-67; Called unlabeled for NMR; also called OTULIN 49–67
Turning to B1, the binding result in assay [3] is “binds”.
